Assays:
[1] = target: Crotalus durissus terrificus (C.d.t.) venom; assay: ELISA, venom-coated wells (5 µg/ml); dilution 1:625
[2] = target: Crotalus durissus terrificus (C.d.t.) venom; assay: ELISA, venom-coated wells (5 µg/ml); dilution 1:125
[3] = target: Crotalus durissus terrificus (C.d.t.) venom; assay: ELISA, venom-coated wells; dilution 1:25
[4] = target: Crotalus durissus terrificus (C.d.t.) venom; assay: ELISA, venom-coated wells; dilution 1:625
[5] = target: Crotalus durissus terrificus (C.d.t.) venom; assay: ELISA, venom-coated wells (5 µg/ml); dilution 1:5
[6] = target: Crotalus durissus terrificus (C.d.t.) venom; assay: ELISA, venom-coated wells (5 µg/ml); dilution 1:25
[7] = target: Crotalus durissus terrificus (C.d.t.) venom; assay: ELISA, venom-coated wells; dilution 1:3125
[8] = target: Crotalus durissus terrificus (C.d.t.) venom; assay: ELISA, venom-coated wells; dilution 1:62,500
[9] = target: Crotalus durissus terrificus (C.d.t.) venom; assay: ELISA, venom-coated wells; dilution 1:312,500
[10] = target: Crotalus durissus terrificus (C.d.t.) venom; assay: ELISA, venom-coated wells; dilution 1:5
[11] = target: Crotalus durissus terrificus (C.d.t.) venom; assay: ELISA, venom-coated wells; dilution 1:125
[12] = target: Crotalus durissus terrificus (C.d.t.) venom; assay: ELISA, venom-coated wells (5 µg/ml); undiluted
[13] = target: Crotalus durissus terrificus (C.d.t.) venom; assay: ELISA, venom-coated wells (5 µg/ml); dilution 1:3125

preimmune IgY (PEG preparation from eggs of unimmunized hens) (antibody)
absorbance 412 nm [1]: 0 absorbance
absorbance 412 nm [2]: 0.003 absorbance
absorbance 412 nm [3]: 0.016 absorbance
absorbance 412 nm [4]: < 0 absorbance
absorbance 412 nm [5]: < 0 absorbance
absorbance 412 nm [6]: 0 absorbance
absorbance 412 nm [7]: < 0 absorbance
absorbance 412 nm [8]: 0.001 absorbance
absorbance 412 nm [9]: 0.01 absorbance
absorbance 412 nm [10]: < 0 absorbance
absorbance 412 nm [11]: < 0 absorbance
absorbance 412 nm [12]: 0.003 absorbance
absorbance 412 nm [13]: 0.002 absorbance
